Target: SNAP-25 (endogenous, human induced neurons) (human) (UniProt P60880)
Assay: cell-based or functional assay

Chain of SNAP-25 (endogenous, human induced neurons) (human) (P60880 whole entry): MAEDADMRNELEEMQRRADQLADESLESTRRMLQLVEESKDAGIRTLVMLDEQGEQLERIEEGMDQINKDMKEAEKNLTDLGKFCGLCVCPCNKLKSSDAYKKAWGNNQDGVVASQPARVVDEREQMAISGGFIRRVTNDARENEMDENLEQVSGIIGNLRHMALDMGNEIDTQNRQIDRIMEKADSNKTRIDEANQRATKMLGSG

SNAP-25 degradation half-life, cycloheximide chase in iNs: 12.5 h | SNAP-25 half-life after L1 or Dfx treatment against control, cycloheximide chase in ANCL iNs: 2 fold
Substance: endogenous CSPα of ANCL patient-derived induced neurons (iNs), which co-express the CSPα^WT and CSPα^L116Δ alleles (from UniProt Q9H3Z4 1-198; Q9H3Z4 1-198)

Reference: patent publication US20210290602A1
